Experimental data from paper PMC6222848, “Spatial Overlap of Claudin- and Phosphatidylinositol Phosphate-Binding Sites on the First PDZ Domain of Zonula Occludens 1 Studied by NMR” (Molecules : A Journal of Synthetic Chemistry and Natural …, 2018).

Legend:
[1] = target: T1, GST-tagged mouse ZO-1(PDZ1) (residues 18–110) (mouse, UniProt P39447 18-110); assay: SPR; BIACORE-3000; Trx-CLD3 peptide immobilized on a CM5 chip, PDZ domain as analyte (0 to 100 ug/mL), 20 uL/min; 10 mM HEPES pH 7.4, 150 mM NaCl, 3 mM EDTA, 0.005% Surfactant P20; KD by 'Affinity from steady-state'; no phytic acid; conditions: both partners purified
T1 construct: zonula occludens 1 (ZO-1), mouse, first PDZ domain, residues 18-110; The methods say that the GST fusion proteins were used for the SPR analysis; also called first PDZ domain of zonula occludens 1; wild-type; source: E. coli BL21 (DE3), purified (glutathione-Sepharose FF), dialyzed
T1 sequence (looked up): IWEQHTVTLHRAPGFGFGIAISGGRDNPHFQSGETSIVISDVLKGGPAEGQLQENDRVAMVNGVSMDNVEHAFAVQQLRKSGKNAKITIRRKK

[2] = target: T2, mouse ZO-1(PDZ1) Arg28 Ala-substituted mutant (mouse, UniProt P39447 18-110, Arg28 Ala-substituted); assay: as above; conditions: both partners purified
T2 construct: zonula occludens 1 (ZO-1), mouse, first PDZ domain, residues 18-110, with Arg28 changed to Ala; Made by mutagenesis of the whole expression plasmid of ZO-1(PDZ1); no cleavage of GST is described for the mutants; also called Arg28 mutation; source: purified with glutathione-Sepharose, dialyzed
T2 sequence (looked up): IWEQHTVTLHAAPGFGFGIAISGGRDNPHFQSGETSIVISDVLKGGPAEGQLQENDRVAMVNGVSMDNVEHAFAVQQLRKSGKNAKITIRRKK

- Kd [1]: 170 nM
- binding result [2]: binds
B1: His6-tagged thioredoxin (Trx) fusion protein of mouse CLD-3 C-terminus (Trx-CLD3, residues 210–219) (domain or fragment, UniProt Q9Z0G9 210-219, looked up)
chain: GTAYDRKDYV
notes: claudin-3 (CLD-3), mouse, C-terminus, residues 210-219; also called Trx-CLD3 peptide; CLD-3 peptide; source: E. coli BL21 (DE3), purified (Ni2+-chelating-Sepharose), dialyzed
